Reference: paper doi:10.1101/156513 (bioRxiv, 2017)

T1: GST-ZPSG-1 (UniProt Q07157 417-806)
T1 sequence: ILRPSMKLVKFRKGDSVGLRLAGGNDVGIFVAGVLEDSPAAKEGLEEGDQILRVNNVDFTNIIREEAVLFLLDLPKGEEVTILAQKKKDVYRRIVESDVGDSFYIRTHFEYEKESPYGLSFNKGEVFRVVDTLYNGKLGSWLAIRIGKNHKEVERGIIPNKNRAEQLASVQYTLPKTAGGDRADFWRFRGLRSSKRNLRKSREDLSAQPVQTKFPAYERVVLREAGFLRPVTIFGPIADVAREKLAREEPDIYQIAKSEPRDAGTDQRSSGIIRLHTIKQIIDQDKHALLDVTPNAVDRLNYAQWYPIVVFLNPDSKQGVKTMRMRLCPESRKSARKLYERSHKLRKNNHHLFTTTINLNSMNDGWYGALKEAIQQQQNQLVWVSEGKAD

B1: GFP-tagged C-terminal ZO-1 fragment (GFP-ZO-1-1619-1748) (domain or fragment)
chain: SAVEEDEDEDGHTVVATARGIFNSNGGVLSSIETGVSIIIPQGAIPEGVEQEIYFKVCRDNSILPPLDKEKGETLLSPLVMCGPHGLKFLKPVELRLPHCDPKTWQNKCLPGDPNYLVGANCVSVLIDHF
B2: HA-DbpA (natural protein)
chain: not shown

Target: T1, GST-ZPSG-1
Test: supernatant depletion assay

Binder | Kd [nM]
B1 | 66
B2 | 100
